Data from publication PMC11615899 (The Journal of Biological Chemistry, 2024).

Target: the molecule itself
Assay: SEC

B1: F-BAR_(REMIND): the [70–347] region of TgREMIND with an N-terminal His-tag and five cysteines replaced (domain or fragment, Toxoplasma gondii, UniProt S8GLL7 70-347, looked up)
chain: APANATAENAFSFKEDLTSDWSLAVSRVDSGRTLLERLRAALLLRANAAVEQASKMESLVQTFVATNLESKTVMSAVNALRLEAVHQADHAREFAEAIRRDVVEGTLTNTIHNHYLVLQQIKADGSEAQKELTLATVDHQKAMHRYLRASKEAAAAAVKAQAAEGEAPNVRTELALSAIRRAVEAKAAEDEHRESVARLNAAAQANERKMAIILQSLQDMDEKRMLSFRDALRKAMVYQAAYLRNVQYDLEQTIKTVDAVDPMADLQEFLGKYRLPKK
With B1 the “stoichiometry N” value was 6.
